Assay results reported in article PMC10138647.

Molecular target: GST-cytPERK (cytosolic domain of PERK expressed as a GST fusion protein) (mouse)
Experiment: cross-linking; GST-cytPERK (1.3 µM) in solution, phosphate buffer pH 7.4, 2 mM MgCl2, 70 mM KCl, 1 mM DTT; 20 min at 27 °C with UDCA (50, 200, 1000 µM) or without, then 0.4 mM DSS for 30 min at 27 °C; quenched with Tris-HCl; 7% SDS-PAGE, blot with anti-PERK antibody; dimer relative to monomer by densitometry

GST-cytPERK (cytosolic domain of PERK expressed as a GST fusion protein) (domain or fragment)
stoichiometry N: 2
